Where two headings read alike, the source gives them in different places.
T1: VHA-c"1 (V-ATPase proteolipid subunit c", isoform 1) fused to CFP or YFP (A. thaliana, UniProt Q9SZY7 1-180)
T1 construct: VHA-c"1, A. thaliana, At4g32530, open reading frame without the stop codon; One molecule for the CFP and the YFP fusion; also called VHA-c"-CFP; VHA-c"-YFP; source: A. thaliana mesophyll protoplasts, transiently transfected, in living cells; not shown: CFP or YFP, C-terminal, kept
T1 sequence (looked up): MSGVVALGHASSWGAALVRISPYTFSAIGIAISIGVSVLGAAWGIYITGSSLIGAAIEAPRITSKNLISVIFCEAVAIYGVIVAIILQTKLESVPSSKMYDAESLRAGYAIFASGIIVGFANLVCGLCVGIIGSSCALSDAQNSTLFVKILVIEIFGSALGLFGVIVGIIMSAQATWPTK

B1: VHA-c3 (V-ATPase proteolipid subunit c, isoform 3) fused to CFP or YFP (natural protein, A. thaliana, UniProt P0DH93 1-164, looked up)
chain: MSTFSGDETAPFFGFLGAAAALVFSCMGAAYGTAKSGVGVASMGVMRPELVMKSIVPVVMAGVLGIYGLIIAVIISTGINPKAKSYYLFDGYAHLSSGLACGLAGLSAGMAIGIVGDAGVRANAQQPKLFVGMILILIFAEALALYGLIVGIILSSRAGQSRAE
notes: VHA-c3, A. thaliana, At4g38920, open reading frame without the stop codon; One molecule for the CFP and the YFP fusion; vectors 35S-CFP-NosT and 35S-YFP-NosT; List of constructs in Additional file 4; also called VHA-c-CFP; VHA-c-YFP; source: A. thaliana mesophyll protoplasts, transiently transfected, in living cells; not shown: CFP or YFP, C-terminal, kept

How the values were obtained:
Assay in all cases: FRET or BRET; in vivo FRET by sensitized acceptor emission (confocal laser scanning microscopy) in co-transfected A. thaliana mesophyll protoplasts; CFP fusion as donor, YFP fusion as acceptor; a FRET value of 8-10% is taken as background
[1] = target: VHA-a-YFP (Mesembryanthemum crystallinum V-ATPase subunit a fused to YFP) (Mesembryanthemum crystallinum)
[2] = target: VHA-a-YFP (Mesembryanthemum crystallinum V-ATPase subunit a fused to YFP) (Mesembryanthemum crystallinum); remark: listed apart in the source
[3] = target: T1, VHA-c"1 (V-ATPase proteolipid subunit …); conditions: partners not purified
[4] = target: B1; conditions: partners not purified
[5] = target: the molecule itself

Row | Molecule | FRET efficiency [1] | FRET efficiency [2] | FRET efficiency [3] | FRET efficiency [4] | FRET efficiency [5]
1 | VHA-A-CFP (V-ATPase catalytic subunit A fused to CFP) (from UniProt O23654 1-623) (natural protein) | 44.8 |  |  |  | 
2 | VHA-c_(trunc) (third and fourth helices of VHA-c3) fused to CFP (domain or fragment, A. thaliana, UniProt P0DH93 80-164, looked up, VHA-c aa 80-164 (helices 3 and 4 of VHA-c3), A. thaliana; Intermediate construct of the hybrid in vector 35S-CFP-C; also called truncated VHA-c; truncated VHA-c-CFP; source: A. thaliana mesophyll protoplasts, transiently transfected, in living cells; not shown: CFP, C-terminal, kept) NPKAKSYYLFDGYAHLSSGLACGLAGLSAGMAIGIVGDAGVRANAQQPKLFVGMILILIFAEALALYGLIVGIILSSRAGQSRAE |  | 40.2% | 46.2% | 40.3% | 
3 | VHA-e1 (V-ATPase subunit e, isoform 1) fused to CFP or YFP (natural protein, A. thaliana, UniProt Q9FLN5 1-70, looked up, VHA-e1, A. thaliana, At5g55290, open reading frame without the stop codon; One molecule for the CFP and the YFP fusion; also called VHA-e isoform 1; AtVHA-e1; source: A. thaliana mesophyll protoplasts, transiently transfected, in living cells; not shown: CFP or YFP, C-terminal, kept) MGFLITTLIFVVVGIIASLCVRICCNRGPSTNLLHLTLVITATVCCWMMWAIVYIAQMNPLIVPILSETE |  | 20% |  | ~20% | 
4 | VHA-e2 (V-ATPase subunit e, isoform 2) fused to CFP or YFP (natural protein, A. thaliana, UniProt Q9SZ13 1-70, looked up, VHA-e2, A. thaliana, At4g26710, open reading frame without the stop codon; One molecule for the CFP and the YFP fusion; also called VHA-e isoform 2; VHA-e2-CFP; source: A. thaliana mesophyll protoplasts, transiently transfected, in living cells; not shown: CFP or YFP, C-terminal, kept) MAFVVTSLIFAVVGIIASICTRICFNKGPSTNLLHLTLVITATVCCWMMWAIVYIAQMNPLIVPILSEVE |  | 20% | 20% | ~20% | 
5 | B1 |  |  |  |  | 20.8%
6 | VHA-c"_(trunc) (third and fourth helices of VHA-c"1) fused to CFP (domain or fragment, A. thaliana, UniProt Q9SZY7 88-180, looked up, VHA-c"1 aa 88-180 (helices 3 and 4), A. thaliana; Intermediate construct of the hybrid in vector 35S-CFP-C; fused to the C-terminus of the fluorescent protein; also called truncated VHA-c"; VHA-c"1_(trunc); source: A. thaliana mesophyll protoplasts, transiently transfected, in living cells; not shown: CFP, N-terminal, kept) QTKLESVPSSKMYDAESLRAGYAIFASGIIVGFANLVCGLCVGIIGSSCALSDAQNSTLFVKILVIEIFGSALGLFGVIVGIIMSAQATWPTK |  |  | 14.8% |  | 
